Measured values published in publication PMC4063679 (Structure (London, England : 1993), 2011).
Where two headings read alike, the source gives them in different places. Where no end group is shown, it is not given here.

T1: His-tagged I-BAR domain of IRSp53, wild type (human, UniProt Q9UQB8-4 1-250)
T1 sequence: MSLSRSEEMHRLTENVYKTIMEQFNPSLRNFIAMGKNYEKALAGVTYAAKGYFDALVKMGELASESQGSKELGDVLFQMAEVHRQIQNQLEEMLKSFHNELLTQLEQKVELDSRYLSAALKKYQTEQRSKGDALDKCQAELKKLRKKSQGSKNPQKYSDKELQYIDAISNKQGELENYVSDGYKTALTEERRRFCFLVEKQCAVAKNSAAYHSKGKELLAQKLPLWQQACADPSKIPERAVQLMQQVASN

B1: EHEC Tir-derived dodecapeptide GTVQNPYADVKT (residues 452-463) (peptide)
peptide: GTVQNPYADVKT-NH2
B2: EPEC Tir-derived 12-mer peptide SEVVNPYAEVGG (residues 448-459) (peptide)
peptide: SEVVNPYAEVGG-NH2

What was measured:
[1] = target: T1, His-tagged I-BAR domain of IRSp53, wild …; assay: ITC
[2] = target: T1, His-tagged I-BAR domain of IRSp53, wild …; assay: ITC; remark: listed apart in the source

Row | Binder | Kd [1] | Kd [2]
1 | B1 | 59 ± 10 µM | 
2 | B2 |  | 37 ± 14 µM
